Tests used:
Metaphase II eggs = assay: Egg labeling by indirect immunofluorescence; type: cell-based, mouse; conditions: 100 μg/ml protein, 45 min
Protocol: Metaphase II eggs were obtained as previously described (Coonrod et al, 1999) and incubated with 5% NGS/media for 30 min. Oocytes were washed five times in TYH medium and incubated with 100 μg/ml recmSLLP1 or 100 μg/ml lysozymes for 45 min at 37° C. and 5% CO2. Oocytes were washed five times and incubated with guinea pig anti-recmSLLP1 polyclonal antibody (1:50), sheep anti-human lysozyme (1:25) or rabbit anti-chicken lysozyme (1:400) in 5% NGS/media for 1 h at 37° C. and 5% CO2. Oocytes were washed five times and incubated with donkey anti-guinea pig/Texas Red antibody (1:200) or goat anti-guinea pig/FITC antisera 1:200), donkey anti-sheep and goat anti-rabbit FITC-labeled secondary antibody (1:200) (Jackson ImmunoResearch), respectively in 5% NGS/media for 1 h at […] 37° C. and 5% CO2. Oocytes were washed and mounted in media onto glass slides and visualized under a Zeiss Standard 18 ultraviolet microscope. Images were captured by using MrGrab 1.0 (Carl Zeiss Vision GmbH, Germany).

rSAS1R = biological target: T1, rSAS1R (Mus musculus, UniProt Q6HA09); assay: Far-Western analysis between SAS1R and SLLP1; type: binding
T1 construct: The mature rSAS1R (414 residues); 20 vector-encoded residues including His6 (pET-28b) (N); made in house; host or cells: E. coli BL21DE3
T1 sequence (Q6HA09 22-435): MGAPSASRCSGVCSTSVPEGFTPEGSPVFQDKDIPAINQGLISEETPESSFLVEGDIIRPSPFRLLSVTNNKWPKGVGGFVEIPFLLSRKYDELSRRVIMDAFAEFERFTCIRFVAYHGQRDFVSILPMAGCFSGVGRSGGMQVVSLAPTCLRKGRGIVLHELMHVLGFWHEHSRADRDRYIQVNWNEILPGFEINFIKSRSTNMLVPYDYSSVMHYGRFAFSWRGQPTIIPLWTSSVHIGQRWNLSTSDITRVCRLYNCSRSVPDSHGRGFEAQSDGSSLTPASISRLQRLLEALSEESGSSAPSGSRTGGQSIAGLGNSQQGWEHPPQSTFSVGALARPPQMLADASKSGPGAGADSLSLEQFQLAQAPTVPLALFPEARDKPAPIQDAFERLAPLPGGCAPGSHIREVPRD
T1 sequence (Q9D9X8 94-221 partner limits assumed): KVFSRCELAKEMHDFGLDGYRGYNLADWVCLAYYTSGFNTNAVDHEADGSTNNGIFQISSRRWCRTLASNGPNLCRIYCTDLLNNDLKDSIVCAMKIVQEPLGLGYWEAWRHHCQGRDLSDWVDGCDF
Protocol: Purified rSAS1R on nitrocellulose membrane was overlaid or not with soluble rSLLP1, washed and probed with anti-SLLP1 antibody.
Purified recombinant SAS1R was resolved by SDS-PAGE and transferred to nitrocellulose membranes. The membrane was probed with c-terminal anti-his monoclonal antibody and developed with TMB. Duplicate SAS1R blotted strips were overlaid with mouse rSLLP1 or not (with 5 μg/ml in blocking buffer i.e., 5% milk in PBS with 0.05% Tween 20 [PBST]) for 90 min at room temperature. Before protein overlay, the strips were incubated with blocking buffer for 1 h. Following overlay, the strips were incubated with either anti-SLLP1 (ADD2) monoclonal antibody for 1 h in blocking buffer. After washing in PBST (×4), the strips were probed with goat anti-mouse HRP secondary antibody in blocking buffer for 1 h, washed in PBST (×4) followed by PBS (×1), and developed with TMB.
To that end, 7.0 μg of recombinant ZEP was loaded onto a 12% SDS gel, subjected to PAGE, and transferred to a nitrocellulose membrane. The membrane was overlaid (OL) with recombinant SLLP1 (2.0 μg/ml) and probed with anti-SLLP1 monoclonal antibody and secondary antibody.

zona-free mouse eggs = assay: In vitro fertilization with zona-free eggs (sperm-oolemma binding and fusion); type: cell-based
[1] = rSLLP1 overlay 5 μg/ml, anti-SLLP1 monoclonal antibody

B1: recmSLLP1: mature mouse SLLP1, residues 94 to 221, six-histidine C terminal tag, expressed in E. coli, about 15 kDa (protein)
chain: KVFSRCELAKEMHDFGLDGYRGYNLADWVCLAYYTSGFNTNAVDHEADGSTNNGIFQISSRRWCRTLASNGPNLCRIYCTDLLNNDLKDSIVCAMKIVQEPLGLGYWEAWRHHCQGRDLSDWVDGCDF
modifications: left off: small tags and cut ends
- fluorescence of mouse oocytes after incubation with protein and respective antibody (Metaphase II eggs): fluorescent labeling within the perivitelline space and over much of the oocyte surface
- binding to recombinant ZEP bands (rSAS1R; 7.0 μg recombinant ZEP, recombinant SLLP1 overlay 2.0 μg/ml): signal was observed with the upper band of ZEP, but not with the lower band
- interaction with C-terminal SAS1R fragment (~25 kD) (rSAS1R; [1]): very weakly
- interaction with full length SAS1R doublet (~51, ~50 kD) (rSAS1R; [1]): interacted strongly
- percentages of motile spermatozoa compared to the control (zona-free mouse eggs): no difference
